The text below walks through data of paper PMC8049080.

Assay [1] addresses dopamine D2 receptor, short isoform, p.Ile212Phe variant (UniProt P14416). Briefly: FRET or BRET; HEK293 cells 48 hours after transfection, in phosphate-buffered saline with 0.1 mM CaCl2 and 0.5 mM MgCl2, ~100,000 cells/well; quinpirole (20-minute stimulation) followed by coelenterazine h at room temperature; agonist-induced recruitment, expressed as percentage of maximum recruitment by D2-WT. For orientation: BRET reads energy transfer from a luciferase to a nearby fluorophore.

For assay [2], the target named is dopamine D2 receptor, long isoform, p.Ile212Phe variant (UniProt P14416). The assay is described as above.

“arrestin3 (from UniProt P32121 1-409) (natural protein)” gave a maximal recruitment, percent of that by D2S-WT in assay [1] of 68%. The substance also came in with a maximal recruitment, percent of that by D2L-WT in assay [2] of 48%.
